Laboratory results from paper doi:10.1101/2025.05.20.655035.
Like-named read-outs stand apart in the source and are kept apart here.

Key:
His6-TCP4 (TCP4-His6) [1] = molecular target: T1, His6-TCP4 (TCP4-His6) (Arabidopsis thaliana, UniProt Q8LPR5 1-420); test: EMSA
T1 sequence: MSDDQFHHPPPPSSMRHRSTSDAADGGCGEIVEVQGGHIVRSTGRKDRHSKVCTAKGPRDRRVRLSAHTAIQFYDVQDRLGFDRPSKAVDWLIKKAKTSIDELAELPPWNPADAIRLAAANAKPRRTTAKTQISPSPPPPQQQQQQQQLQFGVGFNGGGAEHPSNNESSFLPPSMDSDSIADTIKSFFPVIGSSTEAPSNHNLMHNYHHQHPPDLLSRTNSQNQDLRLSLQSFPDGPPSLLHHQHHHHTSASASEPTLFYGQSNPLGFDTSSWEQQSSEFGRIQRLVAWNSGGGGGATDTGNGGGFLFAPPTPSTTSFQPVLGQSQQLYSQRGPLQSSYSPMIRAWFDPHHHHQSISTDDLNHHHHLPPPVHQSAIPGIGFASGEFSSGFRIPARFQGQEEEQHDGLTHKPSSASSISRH

His6-TCP4 (TCP4-His6) [2] = molecular target: T1, His6-TCP4 (TCP4-His6); test: EMSA; remark: listed apart in the source

B1: BS1 (dsDNA)
DNA 1: TCAATTCAACTAGGCCCAGTTTCCTCCTTC
DNA 2: GAAGGAGGAAACTGGGCCTAGTTGAATTGA
binding result (His6-TCP4 (TCP4-His6) [1]): no binding

B2: BS5 (dsDNA)
DNA 1: TTGCATATTGGTTGGTCCAAAAAGATCAAC
DNA 2: GTTGATCTTTTTGGACCAACCAATATGCAA
binding result (His6-TCP4 (TCP4-His6) [1]): no binding

B3: BS2 (dsDNA)
DNA 1: GTGATGTTAAAATGGTCCTAAGTTGACATA
DNA 2: TATGTCAACTTAGGACCATTTTAACATCAC
binding result (His6-TCP4 (TCP4-His6) [2]): binds

B4: BS3-4 (dsDNA)
DNA 1: CAACACACAAATGTGGTCCATTTCTTTTTGTTCATGTGGTCCAATTTTGGTATAT
DNA 2: ATATACCAAAATTGGACCACATGAACAAAAAGAAATGGACCACATTTGTGTGTTG
binding result (His6-TCP4 (TCP4-His6) [2]): binds
